Test results reported in patent US20250388695A1 (PROMAB BIOTECHNOLOGIES, published 2025).

B1: Humanized EPCAM ScFv-linker-CD3 ScFv-His tag (BITE) antibody PBM0065 (FIG. 1B structure) (bispecific antibody)
scFv: QVQLVQSGSELKKPGASVKVSCKASGYTFTNYGMNWVRQAPGQGLEWMGWINTYTGEPTYADDFKGRFVFSLDTSVSTAYLQISSLKAEDTAVYYCARWLRDFDYWGAGTTVTVSSGGGGSGGGGSGGGGSEIVLTQSPATLSLSPGERATLSCSASSSISYMHWYQQKPGQAPRLLIYDTSKLATGIPARFSGSGSGTDFTLTISSLEPEDFAVYYCHQRSSYPYTFGGGTKLEIKGGGGSGGGGSGGGGSEVQLLESGGGLVQPGGSLRLSCAASGFTFSTYAMNWVRQAPGKGLEWVSRIRSKYNNYATYYADSVKGRFTISRDDSKNTLYLQMNSLRAEDTAVYYCVRHGNFGNSYVSWFAYWGQGTLVTVSSGGGGSGGGGSGGGGSQAVVTQEPSLTVSPGGTVTLTCGSSTGAVTTSNYANWVQEKPGQAFRGLIGGTNKRAPGTPARFSGSLLGGKAALTLSGAQPEDEAEYYCALWYSNLWVFGGGTKLTVLHHHHHH
B2: Humanized EPCAM-CD3 bivalent CrossFAB knob-in-hole bispecific antibody PBM005 (FIG. 1A structure) (bispecific antibody)
light: EIVLTQSPATLSLSPGERATLSCSASSSISYMHWYQQKPGQAPRLLIYDTSKLATGIPARFSGSGSGTDFTLTISSLEPEDFAVYYCHQRSSYPYTFGGGTKLEIKRTVAAPSVFIFPPSDEQLKSGTASVVCLLNNFYPREAKVQWKVDNALQSGNSQESVTEQDSKDSTYSLSSTLTLSKADYEKHKVYACEVTHQGLSSPVTKSFNRGEC
chain: QAVVTQEPSLTVSPGGTVTLTCGSSTGAVTTSNYANWVQEKPGQAFRGLIGGTNKRAPGTPARFSGSLLGGKAALTLSGAQPEDEAEYYCALWYSNLWVFGGGTKLTVLSSASTKGPSVFPLAPSSKSTSGGTAALGCLVKDYFPEPVTVSWNSGALTSGVHTFPAVLQSSGLYSLSSVVTVPSSSLGTQTYICNVNHKPSNTKVDKKVEPKSC
heavy 1: not shown
heavy 2: QVQLVQSGSELKKPGASVKVSCKASGYTFTNYGMNWVRQAPGQGLEWMGWINTYTGEPTYADDFKGRFVFSLDTSVSTAYLQISSLKAEDTAVYYCARWLRDFDYWGAGTTVTVSSTKGPSVFPLAPSSKSTSGGTAALGCLVKDYFPEPVTVSWNSGALTSGVHTFPAVLQSSGLYSLSSVVTVPSSSLGTQTYICNVNHKPSNTKVDKKVEPKSCDKTHTCPPCPAPEAAGGPSVFLFPPKPKDTLMISRTPEVTCVVVDVSHEDPEVKFNWYVDGVEVHNAKTKPREEQYNSTYRVVSVLTVLHQDWLNGKEYKCKVSNKALGAPIEKTISKAKGQPREPQVCTLPPSRDELTKNQVSLSCAVKGFYPSDIAVEWESNGQPENNYKTTPPVLDSDGSFFLVSKLTVDKSRWQQGNVFSCSVMHEALHNHYTQKSLSLSPGK
notes: Four constructs co-transfected in 293S cells at 2:1:1:1; Supernatant or protein A purified antibody was used; also called EPCAM-CROSS-FAB-CD3 Knob in hole (KIH) CrossFAB format antibody; EpCAM-CD3 CrossMab knob-in-hole

Assays:
[1] = target: T1, Human EPCAM (Epithelial Cell Adhesion Molecule) on EPCAM-positive Lovo cells (human, UniProt P16422 24-314); test: cell-based or functional assay
T1 sequence (looked up): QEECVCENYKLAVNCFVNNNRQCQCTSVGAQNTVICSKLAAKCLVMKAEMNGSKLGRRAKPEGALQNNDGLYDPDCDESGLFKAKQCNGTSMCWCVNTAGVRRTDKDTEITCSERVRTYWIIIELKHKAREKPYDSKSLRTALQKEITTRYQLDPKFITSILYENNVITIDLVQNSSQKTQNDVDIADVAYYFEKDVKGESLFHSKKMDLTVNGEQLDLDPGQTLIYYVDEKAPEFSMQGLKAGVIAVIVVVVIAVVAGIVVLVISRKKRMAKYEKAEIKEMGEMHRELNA

[2] = target: T2, Human CD3 epsilon chain on CD3-positive T cells (human, UniProt P07766 23-207); test: FACS on T cells
T2 construct: whole, on cells; also called CD3 antigen

[3] = target: T1, Human EPCAM (Epithelial Cell Adhesion …); test: FACS on EPCAM-positive cells

T2 sequence (P07766 23-207): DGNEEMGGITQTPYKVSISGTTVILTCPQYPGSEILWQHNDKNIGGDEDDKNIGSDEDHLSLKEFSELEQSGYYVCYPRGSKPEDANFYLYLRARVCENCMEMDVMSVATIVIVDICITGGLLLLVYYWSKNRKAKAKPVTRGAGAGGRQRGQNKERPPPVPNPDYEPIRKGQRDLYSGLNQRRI

| Binder | EC50 based on IFN-gamma secretion [1] [ng/mL] | binding result [2] | binding result [3] |
| --- | --- | --- | --- |
| B1 | 5.28 | – | – |
| B2 | – | binds | binds |
